Experimental data taken from PMC6796926, “Pioneering function of Isl1 in the epigenetic control of cardiomyocyte cell fate”.

T1: Isl1 homeodomain (Isl1-HD) (UniProt P61372 181-240)
T1 sequence: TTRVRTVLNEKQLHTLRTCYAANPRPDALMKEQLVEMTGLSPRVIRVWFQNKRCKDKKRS

B1: free Ttn DNA (dsDNA)
DNA 1: CGGTGTCTGCTATCACTCAGTTTCATCCCTTTCTTCCCAAATGGCCAGTTTCATGTTGTGTATCTTGACAGTGACTCCCAACCAGAGACTCCTGTTAAGGGAACTTGTCAGTCATAATAGACAATAAGTGAACTTCTTGTTCGGGGTGCTCAATAATTTGCT
DNA 2: AGCAAATTATTGAGCACCCCGAACAAGAAGTTCACTTATTGTCTATTATGACTGACAAGTTCCCTTAACAGGAGTCTCTGGTTGGGAGTCACTGTCAAGATACACAACATGAAACTGGCCATTTGGGAAGAAAGGGATGAAACTGAGTGATAGCAGACACCG
B2: specific competitor (Insulin enhancer) (dsDNA)
DNA 1: CCCTTGTTAAGACTCTAATTACCCTAG
DNA 2: CTAGGGTAATTAGAGTCTTAACAAGGG
B3: nonspecific competitor (NS) (dsDNA)
DNA 1: CAAGCAAAACAAACCA
DNA 2: TGGTTTGTTTTGCTTG

Key:
[1] = target: T1, Isl1 homeodomain (Isl1-HD); assay: EMSA; 0-1 uM Isl1; 40 mM KCl, 15 mM HEPES pH 8.0, 1 mM EDTA, 0.5 mM DTT, 2 mM MgCl2, 5% glycerol, 10 ng/ul poly dI/dC, 0.1 mg/ml BSA, 30 min, RT; 4% PAGE in 0.5x TBE; conditions: protein: recombinant; tags: 6xHis; label: biotin (PCR primers); blunt
[2] = target: T1, Isl1 homeodomain (Isl1-HD); assay: competition; 80x excess vs free and nucleosomal Ttn DNA, 0.5 uM Isl1; 40 mM KCl, 15 mM HEPES pH 8.0, 1 mM EDTA, 0.5 mM DTT, 2 mM MgCl2, 5% glycerol, 10 ng/ul poly dI/dC, 0.1 mg/ml BSA, 30 min, RT; 4% PAGE in 0.5x TBE; conditions: protein: recombinant; tags: 6xHis; blunt

Binder	binding result [1]	binding result [2]
B1	binds	
B2		binds
B3		no binding
